This is an account of results in doi:10.1101/790931, “Pal stabilises the bacterial outer membrane during constriction by a mobilisation-and-capture mechanism” (bioRxiv, 2019).

The experiment deals with T1, C-terminal domain of Pseudomonas aeruginosa TolA (TolA^224-347) (Pseudomonas aeruginosa, UniProt P50600 224-347).
T1 construct: TolA, Pseudomonas aeruginosa, C-terminal domain, residues 224-347; Uniformly 15N- or 13C/15N-labelled for the NMR experiments, unlabelled for fluorescence anisotropy; also called wild-type TolA (residues 224-347); C-terminal domain of TolA; not shown: His tag, N-terminal, cleaved; Im9, N-terminal, cleaved
T1 sequence (looked up): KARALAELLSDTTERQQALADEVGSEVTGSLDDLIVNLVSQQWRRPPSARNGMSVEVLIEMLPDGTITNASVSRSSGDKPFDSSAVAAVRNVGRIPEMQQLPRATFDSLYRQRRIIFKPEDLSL
As to the kind of experiment: NMR titration; TolB peptide added to 0.6 mM 15N-labelled TolA; 1H,15N-HSQC; 20 mM phosphate, 100 mM NaCl, pH 7.6; slow exchange, ratio of bound and free peak volumes; fits for Ser271, Ser306, Gly316, Leu347. The following applies: both partners purified.

No end group written: not given here.

The term Kd denotes the constant that tells how readily two partners part at equilibrium.

B1: P. aeruginosa TolB[22-34] peptide (the TolA box) (peptide)
peptide: ADPLVISSGNDRA-NH2
notes: TolB, Pseudomonas aeruginosa, residues 22-34, the N-terminus of secreted TolB; also called TolB[22-33]; (in supplementary legends); N-terminus of TolB; source: synthetic peptide (thinkpeptides UK (ProImmune))
On to B1, for which the equilibrium dissociation constant (Kd) turned out to be 220 µM.
